The experiment concerns the target T1, FLAG-hSIRT1-FL (full length human SIRT1, FLAG-tagged) (human, UniProt Q96EB6 1-747).
T1 sequence (looked up): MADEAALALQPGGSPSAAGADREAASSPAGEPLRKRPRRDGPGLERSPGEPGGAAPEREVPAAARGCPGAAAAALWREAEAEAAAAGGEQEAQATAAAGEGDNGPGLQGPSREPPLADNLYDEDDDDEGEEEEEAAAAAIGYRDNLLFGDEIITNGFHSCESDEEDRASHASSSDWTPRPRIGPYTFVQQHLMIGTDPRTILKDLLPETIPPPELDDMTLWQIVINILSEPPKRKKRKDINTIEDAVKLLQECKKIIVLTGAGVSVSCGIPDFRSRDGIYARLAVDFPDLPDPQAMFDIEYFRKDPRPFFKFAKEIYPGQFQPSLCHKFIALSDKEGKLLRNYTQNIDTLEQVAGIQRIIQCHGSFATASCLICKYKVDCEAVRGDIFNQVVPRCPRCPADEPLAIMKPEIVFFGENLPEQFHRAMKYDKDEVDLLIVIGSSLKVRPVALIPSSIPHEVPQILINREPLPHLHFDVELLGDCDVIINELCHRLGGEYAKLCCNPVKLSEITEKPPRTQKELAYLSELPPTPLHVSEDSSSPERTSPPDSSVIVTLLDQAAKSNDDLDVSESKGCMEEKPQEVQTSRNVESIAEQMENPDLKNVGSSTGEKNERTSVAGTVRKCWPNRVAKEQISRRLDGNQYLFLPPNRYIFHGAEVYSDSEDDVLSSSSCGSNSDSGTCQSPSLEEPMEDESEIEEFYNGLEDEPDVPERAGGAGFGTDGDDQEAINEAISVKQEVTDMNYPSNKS
In words: pull-down.

B1: GST-TDG(67–308) (domain or fragment, human, UniProt Q13569 67-308, looked up)
chain: TTEPKQPVEPKKPVESKKSGKSAKSKEKQEKITDTFKVKRKVDRFNGVSEAELLTKTLPDILTFNLDIVIIGINPGLMAAYKGHHYPGPGNHFWKCLFMSGLSEVQLNHMDDHTLPGKYGIGFTNMVERTTPGSKDLSSKEFREGGRILVQKLQKYQPRIAVFNGKCIYEIFSKEVFGVKVKNLEFGLQPHKIPDTETLCYVMPSSSARCAQFPRAQDKVHYYIKLKDLRDQLKGIERNMDV
B1: the binding result was “binds”.

The values above are taken from publication PMC4465237 (The Biochemical journal, 2013).
